Assay results: publication PMC11246345

How the values were obtained:
[1] = molecular target: VEGF-A 189; test: ELISA
[2] = molecular target: VEGF-A 165; test: ELISA

**Q.** How did the %relative binding activity (against a reference standard) [1] turn out when US-aflibercept (Fc fusion) was run?
**A.** Its %relative binding activity (against a reference standard) is 97%.

**Q.** What about the %relative binding activity (against a reference standard) [2] of the same substance?
**A.** The %relative binding activity (against a reference standard) was 97%.
